Assay results taken from patent US9393309B2, “Self-gelatinizable nucleic acid” (Kyoto University, priority 2011, dated 2016).

Tests used:
[1] = system: RAW264.7 cells; assay: Release of TNF-α from RAW264.7 cells (ELISA); assay type: cell-based, murine; conditions: 0.5, 1 or 2 μg/ml, 8 hours
Protocol: In a RPMI1640 medium to which 10% heat inactivated FBS, 0.15% sodium bicarbonate, 100 units/ml penicillin, […] streptomycin and 2 mML-glutamine were added, murine macrophage-like RAW264.7 cells were proliferated in humidified air containing 5% CO2 at 37° C. Subsequently, cells were seeded on a 24-well or 96-well culture plate at a density of 5×10^5 cells/well, and cultured for 24 hours before use.
The RAW264.7 cells were seeded on a 24-well plate at a density of 2.5×10^5 cells/well, and incubated for 24 hours before treatment. Then, ssDNA, dsDNA, or several kinds of polypodnas diluted in 0.5 ml of Opti-MEM were added to the cells at a final concentration of 0.5, 1 or 2 μg/ml. The cells were incubated for 8 hours, the supernatant was recovered and stored at −70° C. before use. The concentrations of TNF-α and IL-6 in the supernatant were measured by Enzyme-Linked Immunosorbent Assay (ELISA) using an OptEIA™ set (Pharmingen, San Diego, Calif., USA).
The same experiment as in Example 22 was carried out except that each poolypodna preparation was prepared in the same manner as in Example 1 by using the sequences in Table 1. However, the added DNA was equal amount in each case.

[2] = Gel formation in a living body after subcutaneous injection of sol; assay type: in vivo; conditions: total DNA 2 mM, NaCl 5 mM, back of mouse
Excerpt: The hydrogel produced in Example 1 was able to be prepared in a sol state by appropriately adjusting conditions. Therefore, the hydrogel was able to be administered in a living body by injection. […] Thus, it was confirmed that a gel is formed in a living body only by preparing the hydrogel in accordance with the present invention in a sol state and administering the hydrogel to a living body.

[3] = Release of encapsulated OVA from gel; assay type: physicochemical; conditions: DNA 0.5 mM
Protocol: By controlling the nature and salt concentration of protruding ends of Tetrapodna, the change of the releasing rate of an encapsulated compound in a gel was examined. Specifically, Tetrapodna (4-18-18) (SEQ ID NOs.: 2, 4, 5 and 6) including a cohesive protruding end and Tetrapodna (4-18-18) (SEQ ID NOs.: 58, 59, 60 and 61) as a control including a non-cohesive protruding end were used. In an aqueous solution of Tetrapodna which had been prepared such that the DNA concentration was 0.5 mM, the NaCl concentration was adjusted to 5 mM or 150 mM. When the NaCl concentration was increased, egg albumin (OVA, concentration of 2.5 μg/μl) was added as an encapsulated substance to cause gelation, and then the percentage of OVA released from the gel with the passage of time was measured.

[4] = Evaluation of gelation at various DNA concentrations and NaCl concentrations; assay type: physicochemical; design: key: ◯: the mark “∘” is given to cases in which gelation was observed; X: the mark “x” is given to cases of a solution state (sol-state)
Protocol: […] The gel formation and the gel strength were measured by a gel strength analyzer (gel strength meter, Nakayamadenki Co., Ltd, Osaka).
Specifically, by changing the DNA concentrations of an aqueous solution of Tripodona (4-18-18) (X=4) (SEQ ID NOs.: 1, 2 and 3), Tetrapodna (4-18-18) (X=4) (SEQ ID NOs.: 2, 4, 5 and 6), Hexapodna (4-18-18) (X=4) (SEQ ID NOs.: 2, 3, 4, 7, 9 and 10) and Tetrapodna (8-16-16) (X=8) (SEQ ID NOs.: 22, 23, 24 and 25) as shown in the lines of Table 4, and by changing the NaCl concentration as shown in the rows of Table 4, whether or not a gel is formed at various DNA concentrations and NaCl concentrations was evaluated. The results are shown such that the mark “∘” is given to cases in which gelation was observed, and the mark “x” is given to cases of a solution state (sol-state).

[5] = Formation of hydrogel from nucleic acid units without ligase; assay type: physicochemical; conditions: without DNA ligase
Protocol: A NaCl solution was added to an ODN solution (polypodna) such that the final Na^+ concentration was 5 to 150 mM. The gel formation and the gel strength were measured by a gel strength analyzer (gel strength meter, Nakayamadenki Co., Ltd, Osaka).
A structure to be a hydrogel (a nucleic acid monomer and an estimated nucleic acid unit) in conditions at room temperature, at 5 mM to 150 mM sodium chloride concentration (150 mM is substantially physiological concentration), and not containing a DNA ligase was elucidated. […] For convenience, nucleic acid units estimated to be formed according to the number of nucleic acid monomers capable of constituting the nucleic acid unit were represented by xxxpodna (xxxpod-like structure forming nucleic acid, xxx is substituted by tri (3), tetra (4) and the like, according to the number of nucleic acid monomers capable of constituting the nucleic acid unit). In Table 2 described below, xxxpodna is an estimated nucleic acid unit, and each of xxx-Y-N is a nucleic acid monomer that can be a constituent element of the nucleic acid unit (xxxpodna) which is mentioned above thereof. When the descriptions of Ys are different from each other, different nucleic acid units can be formed. N denotes numbering of nucleic acid monomers constituting each of the estimated nucleic acid units.
Unlike (1-1) described above, gelation can be controlled by using a nucleic acid monomer including cohesive protruding ends which are not attached to themselves (that is, not palindrome sequence).

[6] = Temperature conditions for gel formation; assay type: physicochemical; conditions: NaCl 150 mM
Protocol: Furthermore, we investigated a possibility that temperature conditions are also involved in gelation. Tetrapodna (4-18-18) (SEQ ID NOs.: 2, 4, 5 and 6), Hexapodna (4-18-18) (SEQ ID NOs.: 2, 3, 4, 7, 9 and 10) and Tetrapodna (8-16-16) (SEQ ID NOs.: 22, 23, 24 and 25) were used to examine the temperature conditions for allowing a gel be present or a sol to be present by fixing the NaCl concentration at 150 mM and changing the DNA concentration variously.

[7] = Percentage of remaining gels with the passage of time; assay type: physicochemical; conditions: DNA 0.5 mM, NaCl 150 mM
Protocol: Gels were formed by adjusting the NaCl concentration at 150 mM in an aqueous solution containing Tetrapodna (12-14-14) (SEQ ID NOs.: 30, 31, 32 and 33) at a DNA concentration of 0.1 mM, 0.25 mM or 0.5 mM, and the percentage of the remaining gels was measured with the passage of time. The results are shown in a graph in the left upper side of FIG. 17.
Gels were formed in conditions at a certain DNA concentration (0.5 mM) and a certain NaCl concentration (150 mM), and the percentage of the remaining gels was measured with the passage of time by using Tetrapodna (respectively, SEQ ID NOs.: 2, 4, 5 and 6, SEQ ID NOs.: 18, 19, 20 and 21, SEQ ID NOs.: 22, 23, 24 and 25, SEQ ID NOs.: 26, 27, 28 and 29, as well as SEQ ID NOs.: 30, 31, 32 and 33) having various lengths of the cohesive protruding end (4, 6, 8, 10 or 12 bases). The results are shown in a graph in the left lower side of FIG. 17. […] When 12 hours had passed, the percentage of the remaining gels became about 50%.
Gels were formed by variously changing the NaCl concentrations (5 mM, 50 mM, 100 mM or 150 mM) of an aqueous solution containing Tetrapodna (12-14-14) (SEQ ID NOs.: 30, 31, 32 and 33) at a DNA concentration of 0.5 mM, and the percentage of the remaining gels was measured with the passage of time. The results are shown in a graph in the right upper side of FIG. 17. […] At a low salt concentration (5 mM), almost all the formed gels became in a sol state when about 6 hours had passed. When the salt concentration was increased to 50 mM, solation tendency was weakened, a change from a gel into a sol occurred moderately (about 40% when 12 hours had passed).
The percentage of the remaining gels was measured with the passage of time in the same manner as in (8-3) except that Tetrapodna (4-18-18) (SEQ ID NOs.: 2, 4, 5 and 6) was used instead of Tetrapodna (12-14-14) (SEQ ID NOs.: 30, 31, 32 and 33). The results are shown in a graph in the right lower side of FIG. 17. […] In (8-3), Tetrapodna (12-14-14) (the length of the cohesive protruding end is 12 bases) was used. In (8-4), Tetrapodna (4-18-18) (the length of the cohesive protruding end is 4 bases) was used.

[8] = system: mouse dendritic cell DC2.4; assay: Stimulation of dendritic cells by gel; assay type: cell-based; conditions: gel brought into contact with DC2.4

ssDNA36: single strand 36 mer ODN, SEQ ID No. 108 (DNA TCGCTGACGTTGCAGACATCACGTTGACGCTGTCGA; unmodified DNA) [reference compound]
TNF-α release [1]: the TNF-α release hardly occurred

B1: control Tetrapodna: Tetrapodna (4-18-18), SEQ ID NOs.: 58, 59, 60 and 61, non-cohesive protruding end, control (nucleic acid)
DNA 1: AGTCTCGCTGACGTTGCAGACATCACGTTGACGCTGTCGA
DNA 2: AGTCTCGACAGCGTCAACGTGAAACGTGAAGCGTCTGCGA
DNA 3: AGTCTCGCAGACGCTTCACGTTGCAGACAGACGTTGACGA
DNA 4: AGTCTCGTCAACGTCTGTCTGCTGTCTGCAACGTCAGCGA
modifications: unmodified DNA
gel formation in a living body [2]: a gel was not formed in a living body
gelation ([3]; NaCl 5 mM or 150 mM): Gelation hardly found
percentage of OVA released from the first ([3]; OVA 2.5 μg/μl): ~100%

B2: Hexapodna(4-18-18): six ODNs, SEQ ID NOs.: 2, 3, 4, 7, 9 and 10, 4-base cohesive protruding end (nucleic acid)
DNA 1: ACGTTCGACAGCGTCAACGTGAAACGTGAAGCGTCTGCGA
DNA 2: ACGTTCGCAGACGCTTCACGTTGAGCACAGACGTTGACGA
DNA 3: ACGTTCGCTGACGTTGCAGACATCACGTTGACGCTGTCGA
DNA 4: ACGTTCGTCAACGTCTGTGCTCGCAGCGTCTTAACGTCGA
DNA 5: ACGTTCGACGTTAAGACGCTGCAGACGTTCAGGACTACGA
DNA 6: ACGTTCGTAGTCCTGAACGTCTTGTCTGCAACGTCAGCGA
modifications: unmodified DNA
gelation ([4]; Na+ 2 mM, DNA 0.8 mM): ◯
gelation ([4]; Na+ 20 mM, DNA 0.7 mM): X
gelation ([4]; Na+ 50 mM, DNA 0.5 mM): X
gelation ([4]; Na+ 50 mM, DNA 0.6 mM): X
gelation ([4]; Na+ 50 mM, DNA 0.7 mM): ◯
gelation ([4]; Na+ 100 mM, DNA 0.4 mM): X
gelation ([4]; Na+ 100 mM, DNA 0.5 mM): ◯
gelation ([4]; Na+ 100 mM, DNA 0.6 mM): ◯
gelation ([4]; Na+ 150 mM, DNA 0.3 mM): X
gelation ([4]; Na+ 150 mM, DNA 0.4 mM): ◯
gel formation [5]: gels can be prepared
temperature at which gel is present ([6]; DNA concentration 1.0 mM): gel at 65 °C
temperature at which sol is present ([6]; DNA concentration 1.0 mM): sol at 75 °C
temperature at which gel is present ([6]; DNA concentration 0.3-0.8 mM): gel at 55 °C
temperature at which sol is present ([6]; DNA concentration 0.3-0.8 mM): sol at 65 °C

B3: Tetrapodna(8-16-16): four ODNs, SEQ ID NOs.: 22, 23, 24 and 25, 8-base cohesive protruding end (nucleic acid)
DNA 1: ACGTACGTTAGCACGACATCAGCGTCTGACGCTTCGTCGA
DNA 2: ACGTACGTTCGACGAAGCGTCAGATCTCGTCAACGCTGCA
DNA 3: ACGTACGTTGCAGCGTTGACGAGACAGACGCTTGACGCTA
DNA 4: ACGTACGTTAGCGTCAAGCGTCTGCGCTGATGTCGTGCTA
modifications: unmodified DNA
initial percentage of gels [7]: about 100%
percentage of the remaining gels with the passage of time [7]: decreased with the passage of time only slightly
gelation ([4]; Na+ 2 mM, DNA 0.6 mM): ◯
gelation ([4]; Na+ 10 mM, DNA 0.5 mM): X
gelation ([4]; Na+ 20 mM, DNA 0.5 mM): ◯
gel formation [5]: gels can be prepared
temperature at which gel is present ([6]; DNA concentration 0.5 mM): gel at 55 °C
temperature at which sol is present ([6]; DNA concentration 0.5 mM): sol at 75 °C

B4: Tetrapodna (4-18-18) which does not contain a CpG motif: four ODNs, SEQ ID NOs.: 14, 15, 16 and 17, not containing CpG (nucleic acid)
DNA 1: AGCTAGGCACCGTAGTCAATCGCCGATGTGTCCAAAGCCT
DNA 2: AGCTAGGCTTTGGACACATCGGTGCTCCTACCGTACTCCT
DNA 3: AGCTAGGAGTACGGTAGGAGCAGTTTCGGCATGTCCACCT
DNA 4: AGCTAGGTGGACATGCCGAAACCGATTGACTACGGTGCCT
modifications: DNA, all phosphodiester, methylation of C not given here
immunological stimulation of dendritic cell [8]: did not immunologically stimulate a mouse dendritic cell
